Experimental data taken from paper PMC4609965 (2015).

Target: alpha-synuclein (Homo sapiens, UniProt P37840)
Test: NMR PRE titration

Kd	Binder
~100 µM	EGESYEDPPQEEYQEYEPEA [beta-synuclein 115-134]
~500 µM	YEMPSEEGYQDYEPEA [alpha-synuclein 125-140]
